Test results reported in a protein production outcome set (Wang et al. 2014).

Assay: label from the status in PepcDB records

Sequence	protein production
MSTVNGANIQSEEQHTGGCSAGCSGGSTGGSTDGSTGGNTQQGCSCDTHDEQRDGSVAAQTFGEEGPVKTLGRIGSKLVVLSGKGGVGKSTVAVNLAVGLARAGRKVGLLDVDVHGPSVPRLLGLTGTRPMIGEDAMYPVGWRNNLRVMSLGFFLPDPEQAVIWRGPVKMGLIRHFLTEVRWGDLDHLVVDCPPGTGDEPLSVLQLLGTDAQAVIVTTPQGVAVDDVRRSVGFCRELGNPILGIVENMGGYVCPKCGELTPLFPAGGGEALAAEQGVTFLGRIPLHPDLTSAGDAGRSLYEADAAHPIVRALAPIVERAAATLHASDIRHESTTGPQSEAAPGTGKTAATMPTAPTRNESCAPATNHPDTNGDTTMKIAIPVAGDVLCQHFGHCERFALIDVDPATGSVTGRNDVTPPPHEPGLLPVWLSEKGANLVIAGGMGARARALLEERGVKVLIGAPAAAPEAIVAAHMAGTLTLGANTCDH	failed
RSRTKLLLLTVIPLIVITALVMAVNYQSGLSTLQKELENYRTDLIDAKKKELQAYLMMGVTAVKPLYESDKAGENQAQAKQILKAMRFDSDGYFFAYDSQGVNTLHAIKPELEGKNLYGMKD	failed
MSERVSEEPGLDKGDRAEECELDDPELKAIRMRVREMEEEAERLKGLSGQDKSIGVSTRPCMQTTHSKMTAGAYTEGPPQPLSAEEKKEIDKRSVYVGNVDYGSTAQDLEAHFSSCGSINRITILCDKFSGHPKGYAYIEFAERNSVDAAVAMDETVFRGRTIKVLPKRTNMPGISSTDRGGFRGRPRGNRGNYQRGQRPRGRPFRGRGRPGPLNNPY	not failed
MESITEWDLGSLRTYYSVEPSENFQEDEFLDFNLVPCLQTELWKAQTRIKELEAEKFKSEETIRCLIRNQRNEKEETTNPFVDYLKEKLSKEREEKKRVKAENSRLKKKILDMESSVNRLRRERDTMEKVCEELVTRIDELKVNTRRVWDETEEERQMLQMAEMWREERVRVKFMDAKLALQEKYEEMNLFVVELEKCLETAREVGGIEEKRLRHGEGLIKMAKSMEVVDSKIDFERFEFVSDEGNV	failed
MCSMASHDLSVFLEEFGATVNLTLPGIVSEKERLLLKLLMEGMSVTEISQYRNRSAKTISHQKKQLYEKLGIQSDITFWRDIFFQYHPQVISGTGNKNNFYIPDNRCHHIVTPEAISLALENHEFKPWIQPVFCAQTGVLTGCEVLVRWEHPQTGIIPPDQFIPLAESSGLIVIMTRQLMKQTADILMPVKHLLPDNFHIGINVSAGCFLAAGFEKECLNLVKKLGNDKIKLVLELTERNPIPVTPEARAIFDSLHQHNITFALDDFGTGYATYRYLQAFPVDFIKIDKSFVQMAGVDEISGHIVDNIVELARKPGLSIVAEGVETQEQADLMIGKGVHFLQGYLYSPPVPGNKFISEWVMKAGG	failed
MTPHKQLILGGEQAFVGNVASGDFKNRPCPSDLGDIPGTVNPPEGRNPSQDFGQRWDWIQLNAEHMKFSSVSEEKPGLLAPPAQPLTKMFQGAWLCWASLLLLVRVTQPCPVGCDCFDRKIFCSDEQLAAIPLDIPSHVTDIVFVETSFTTVGTRAFSGSPNLTKVVFLNTRVHHLEPDAFGGLPRLEDLEVTGSPFSNLSANIFSNLSSLGKLTLDFNRLAALPEDLFHHMDTLESLQLQGNQLQTLPGRLFQSLRYLRTLNLAQNLLTQLPKGMFQSLSSLQILKLSDNMFARLPEGVLSNLGSLQELFLDSNAITELSPHLFSHLLSLEKLWLQHNAISLLPVSAFSSLRNLTFLNLKDNALRTLPAGLFTHNPGLLHLSLSYNQLETVPEGSFANLRKLASLTLSHNAITHLPENVFRNLEQLVKLSLDSNNLTVLHPTLFHNLSKLQLLDLSRNQLTMLPGGIFDTNYDLFNLALLGNPWQCDCRLSYLTSWLRLYNDRIFNTHTFCAGPAYLKGQLVPNLKQEQLVCPGNPGQLGLDDREPAGSWDLAVEGRAAHRQCIYGNPEGTVLLACEEAQCRWLNIQLSSREGSDVTAMAYNSSQEWELRSTCGSVRVTVSIEAQAAGP	failed
MATNLKSTAKLVKPIQYDEVIEVERIFADPAFIEQHRQRILASFKDAKESALYHELTHIVIKDNLFSCAMNAIVGYFEFNIDEAELKNVMEGLKRDVIQGAEDNTVQAIAEKIIKKALVFNHLQKEWKVEITDEVVKNVISLYYEKTNQSVREYLDDKQKFEGVRTALLEERMVLETINHFKFHFNLTGQLPN	not failed
MDKFSDMTMFVSIVKHQGLAAAGRELGLSPATMTARLQALEERYRVKLLNRSTRHVSLTDAGELYYKASLEILDNVNETENLILNGVKEVKGALRVAAPKDIGKQYILPILSEFCEKYPDVVPYLYLNDDVSNIAESGIDIVVRYGELADSSLISRRLSSSHRVLCASPDYLAKYGTPLTPQDLINHHCLAMVRSHEELKTWHFQGSDKKNVITVLPKRFSDDGEVVRYWALEGAGIALKSILDVQDDINNRRLVTVLNGYMANFNTSTSVSSADLNVVYMSKKYQPKRIRLFLDFLLERFETMKNGGK	not failed
MQNCATGMQMDWISLLKAQQADFLLRVKKPKTYDLSLLESQVKGCHSEIMAFWGEPFAKIQEVSRRQAEILAKNPPPIPPEYPEPPDWTIPFPIHFQQQAEDYFLREQIVDRLIVERLGKLLKKLPQDTVKNMVLDDEGNLRGESKFTYLLADNPKISVQVYVADGESFNGIKKDKIKWSVTQEDLKNHQVLIFLCLFYPSTGKLGYEKQAVVAGFLPTSHIAVTEPKLYFTPSHLLYAGGLSWYLESLTAKKEAKLDFLPVVIERTIPETIQTVPSEHPRKEIIGDWECWQTLRGHMRGINCLSFSSGCENGLPMLASGSRGETKLWDLNQGELIDTLSEYPWIVSGLVDEVNSLAFSADGQMLVSGGADSTIKIWHTGALDLIDILHKHNGIVRCAAFTPDGQMLATGGDDRRILFWDLMHRQVKAILSLDDTAAHSLVLSRDGQTLVTGSYRKIKVWQTSGSWFGKNLKDAQPLHTLMGHGHIVRSLAMSKDGQLLISGSWDQTIKIWHLATGRLIRTLKGHTDKVYAIALSPDEQIIASGSSDQTIKLWHLETGELLATFTGHTDIVTALTFTTSGEMLVSGSLDKTIKLWQRS	failed
MSNWNLDNFDNLHSSLAESAYNSRPNSFPELFETDSVTEVKFSQPSEDNKGQITQGGTNLPNDGIVYLQPDKSLKSIDENVKVLIPDVNGGYHTEHYVTHSYQKGVLTDDKAGFNAYYLSDTEKIDSTTKHTYLAIRGSDGIGLDTLNDWVSNNAMFAVSNKYIPQAKLANKAMKEKIAELKGKAPGAIIDVTGHSLGTIVSSQAVVNLSYAELENVGQVVLFDGPDVSRSLEKMEGISAKKIQEAGKHVTYYVNPFDIVSMLNREKP	failed
MDNRTGEMEVFVSAAELQSFSAAGRRLKLSPSAVSKLVTRIEDRLGTRLLVRSTRMMTLTPEGEIYLARARRILADIADTEQIVAAGGKLVPRGLLRVNASVGFGERFLLPLIPAFLELYPEVQLDISLTDGIIGLIEERTDIAIRSGAMDDSSLKARKLLESRRVIIASPSYIKRHGMPQTPADLAAHNCFSFNFRRSLNEWPFRDPGSTEIYRLPVSGNSSVNSGMIMRRLCLAGSGLGRVGQFHVQPDIDAGTLVPVLEDYNPDDIEEIHAVFAGHEHLATRIRAFIDFLAEHVGKDRA	failed
SYETSQHNLDAVEAVLSRLQKQTGEMAAYMVPVGYRALCVSQRESMQALRCSFVQGQSQPLLRGASSKVMLAYMPAARCEKILRYFGEDPTLDKWQSEFEKIRRHGYAVSTSEIDPGVSGISAPVMKGSKLIGAISVMAPAHRVESNKQRIILHVLQAARALPPER	not failed
AIVNASNNAILTTSITGEILSANPAAVQMFQSLEQELKGISVSRLFAEKDEMHFFFDFQSNVYSLQRKALGISVECLSLRSDGTEFPAQAELQWADRAKQPLIVITFINLS	failed
MPTPAYIKIVGQTQGNITAGAFTADSVGNVFQQGHEDQILVQEIKHEVTTPTDPQSGQPSGQRVHKPFIFTSSLNKATPLMYQALATGEMLPTVEVSWYRTSSEGKQEHFFTTTLEDATIVSINTVLPHALDKDNENYTQLVEVSLAYRKITWAHDVANTEGSDDWRAPAA	failed
MRGPLSRPVCMKLGIDFGTSNSAAAAIVDGQVVPVRFGQALQFRTTVYFPETMRDPDDFSLTPALEYEVERLIDSGRRDALAAGRTPNNDSLRRDAIRIVRRQWMEEQVREPRSSAALLQNAVYGDEALDAYFLEGEGSLVQSPKSMLGYNLHPRARQTMTGIATHVLEHIRLTASRQFDINIRHATLGRPVQFRSSIGEAGNAQALEILQTAAIAAGFDSVDFLEEPAAAAMHYHVSHDSRHDTVVVDIGGGTTDVAHASVGGSAAPQVHRAWGIARGGTDIDLALSLAAYMPLFGRGITRVPTHHYVEAAMVQDMTRQREFRLHKYQDVPAPFDRRLQALQDTGNTARLYRGVEACKIALSELDRHQDALDFIERGLGVDVQAGALVASASNYLDELEGLLAQVRTEMATAPATVFLTGGMSRAGYIRDTVAAAFPESRLVHGDPSFGVVQGLAWAAAQDARLSDG	failed
MNIEEFTSGLAEKGISLSPRQLEQFELYYDMLVEWNEKINLTSITEKKEVYLKHFYDSITAAFYVDFNQVNTICDVGAGAGFPSLPIKICFPHLHVTIVDSLNKRITFLEKLSEALQLENTTFCHDRAETFGQRKDVRESYDIVTARAVARLSVLSELCLPLVKKNGLFVALKAASAEEELNAGKKAITTLGGELENIHSFKLPIEESDRNIMVIRKIKNTPKKYPRKPGTPNKSPIEG	not failed
MDLTIQHFIALAPLLITSLTVVVVMLAIAWRRNHSQTFLLSVAGLNLALLSIYPALKVAPLVVTPLLHIDNFACLYMAIILASTLACVTMAHAYLGDGKVGYPGNREELYLLILLAAAGGLVLVSAQHLAGLFIGLELLSVPVYGLVAYAFFNKRSLEGGIKYMVLSAAGSAFLLFGMALLYAEAGSLSFEGIGKAIAATGMPSPIATVGLGMMVVGLAFKLSLVPFHLWTPDVYEGAPAPVAAFLATASKVAVFAVLVRLFQISPAASSGVLHDVMAVIAVASILVGNLLALTQTNLKRLLGYSSIAHFGYLMIALVASKGMAVEAIGVYLATYVLTSLGSFGVITMMSSPYSGRDADAMFEYRGLFWRRPYLTAVMTLMMLSLAGIPLTAGFIGKFYIIATGVESQLWWLIGALVIGSAIGVFYYLRVMVTMYLVDNKLPRHDAAINWAQRTGGVMLLAVAILTFVLGVYPQPLLDLVVNAGLHAAG	not failed
MIRNVLKLLALLADEIVIVALVIIFLRRVSARLAVIVGGALILFNLFLVKLLWGTLKKKAEVGAEALIGEKAVVVEDLNPVGLVKVKNELWTAECISGTARRGEKVRIVQVKGAKLLVEKDDNAGKFL	failed
MRAAVRTRIVATYLAVAALWGSTWMAIRIGLEDLPPLRFAGVRMAIAALVLAPFALRGGAWREVVGPARAQLALVAVLQIALPYGLMFVAQQWVPSGLAAVLFASFPVWIALLARALVPGETLTPARVASALLGIAGVAVLQLPHLGDLEGSGRLLLGGALVVLSSMIVALANVLVRRHLAAVSPLAMTAGQTAVGAVLLLAAAALLEQGRPAAFTASAVAALAWLAVFGTALTYVGLYWLVPRVPMAAIGALPLLDTSVAVTLGALVLHEPVGWNLALGGGMVLAAAALTIPRRR	failed
